Measurements from US20240116985A1 (published 2024).
Starred links: 1 amine or outer side, 2 acyl side, 3 side chain; linkers in the order of their positions; H or OH if unused. Positions of bridges follow the written chain, without caps; N, C: chain ends. Non-standard residues stand in square brackets, D forms with d. Primed or numbered codes have the meaning given here. *: point of attachment. PyrS2″ = (S)-3-amino-1-((pent-4-en-1-yloxy)carbonyl)pyrrolidine-3-carboxylic acid (stapling residue), C=CCCCOC(=O)N1CC[C@@](N[*:1])(C(=O)[*:2])C1; B5(4) = 2,2-bis(4-pentenyl)glycine = 2-amino-2-(pent-4-en-1-yl)hept-6-enoic acid (stitching residue), C=CCCCC(CCCC=C)(N[*:1])C(=O)[*:2]; B5(5) = 2,2-bis(4-pentenyl)glycine, 2-amino-2-(pent-4-en-1-yl)hept-6-enoic acid (stitching residue), C=CCCCC(CCCC=C)(N[*:1])C(=O)[*:2]; B5(33) = 2-amino-2-(pent-4-en-1-yl)hept-6-enoic acid (bis-pentenylglycine, two olefin side chains), C=CCCCC(CCCC=C)(N[*:1])C(=O)[*:2]; PyrS2 = (S)-3-amino-1-((pent-4-en-1-yloxy)carbonyl)pyrrolidine-3-carboxylic acid, C=CCCCOC(=O)N1CC[C@@](N[*:1])(C(=O)[*:2])C1; B5(3) = 2,2-bis(4-pentenyl)glycine (stitching residue), C=CCCCC(CCCC=C)(N[*:1])C(=O)[*:2]; mPEG2 = N-terminal 3-(2-methoxyethoxy)propanoic acid, COCCOCCC(=O)*; Phe(3-COOH) = N[C@@H](Cc1cccc(C(=O)O)c1)C(=O)O; Phe(2-Cl) = N[C@@H](Cc1ccccc1Cl)C(=O)O; 1Nal = N[C@@H](Cc1cccc2ccccc12)C(=O)O; 2Nal = N[C@@H](Cc1ccc2ccccc2c1)C(=O)O; Bta = N[C@@H](Cc1csc2ccccc12)C(=O)O; αAllylPro = C=CC[C@@]1(C(=O)O)CCCN1; tBuAla = CC(C)(C)C[C@H](N)C(=O)O; S8 = C=CCCCCCC[C@](C)(N)C(=O)O; Thr(ol) = C[C@@H](O)[C@H](N)CO; Propanoyl(3-OMe) = COCCC(=O)*; Leu(ol) = CC(C)C[C@H](N)CO; Alaol = C[C@@H](CO)N*; Ms = CS(=O)(=O)*

biological target: T1, B-cat-Halo (Homo sapiens (Human), UniProt P35222 1-781); test: cell-based or functional assay
T1 sequence: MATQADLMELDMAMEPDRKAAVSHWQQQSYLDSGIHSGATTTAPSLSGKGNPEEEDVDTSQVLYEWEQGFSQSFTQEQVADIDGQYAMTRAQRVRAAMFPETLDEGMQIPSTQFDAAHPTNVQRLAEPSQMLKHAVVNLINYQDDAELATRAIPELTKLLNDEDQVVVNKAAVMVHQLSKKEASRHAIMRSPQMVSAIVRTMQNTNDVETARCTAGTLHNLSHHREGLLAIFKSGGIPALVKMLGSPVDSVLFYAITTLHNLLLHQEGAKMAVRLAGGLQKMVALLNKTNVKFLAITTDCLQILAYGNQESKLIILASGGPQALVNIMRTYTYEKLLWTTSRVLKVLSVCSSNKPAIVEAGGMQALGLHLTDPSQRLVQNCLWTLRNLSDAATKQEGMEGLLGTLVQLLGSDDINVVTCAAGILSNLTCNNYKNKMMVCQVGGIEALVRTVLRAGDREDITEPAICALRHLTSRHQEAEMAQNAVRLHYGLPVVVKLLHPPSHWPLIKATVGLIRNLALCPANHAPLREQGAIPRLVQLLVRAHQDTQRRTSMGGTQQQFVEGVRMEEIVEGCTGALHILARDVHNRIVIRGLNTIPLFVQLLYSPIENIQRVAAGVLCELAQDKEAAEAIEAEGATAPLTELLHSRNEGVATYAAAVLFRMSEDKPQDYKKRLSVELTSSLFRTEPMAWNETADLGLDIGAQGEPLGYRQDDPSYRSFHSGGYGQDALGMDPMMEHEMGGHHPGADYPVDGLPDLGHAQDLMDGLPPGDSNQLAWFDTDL

Binder | NanoBRET Abs IC50
Ac-[αAllylPro]D[tBuAla][B5(3)]D[Phe(3-COOH)]AAFA[PyrS2″][Phe(2-Cl)][Bta]N-NH2 (staple 1-4, 4-11; also: staple isomer, earlier eluting HPLC peak) [I-2035] | 14.5 µM
Ac-[αAllylPro]D[tBuAla][B5(3)]D[Phe(3-COOH)]AAFL[PyrS2″][Phe(2-Cl)][Bta]NAAA-NH2 (staple 1-4, 4-11) [I-2040] | 2.8 µM

biological target: T2, B-cat-Halo (beta-catenin HaloTag NanoBRET construct expressed in HEK293 cells) (Homo sapiens (Human), UniProt P35222 1-781); test: cell-based or functional assay
T2 sequence: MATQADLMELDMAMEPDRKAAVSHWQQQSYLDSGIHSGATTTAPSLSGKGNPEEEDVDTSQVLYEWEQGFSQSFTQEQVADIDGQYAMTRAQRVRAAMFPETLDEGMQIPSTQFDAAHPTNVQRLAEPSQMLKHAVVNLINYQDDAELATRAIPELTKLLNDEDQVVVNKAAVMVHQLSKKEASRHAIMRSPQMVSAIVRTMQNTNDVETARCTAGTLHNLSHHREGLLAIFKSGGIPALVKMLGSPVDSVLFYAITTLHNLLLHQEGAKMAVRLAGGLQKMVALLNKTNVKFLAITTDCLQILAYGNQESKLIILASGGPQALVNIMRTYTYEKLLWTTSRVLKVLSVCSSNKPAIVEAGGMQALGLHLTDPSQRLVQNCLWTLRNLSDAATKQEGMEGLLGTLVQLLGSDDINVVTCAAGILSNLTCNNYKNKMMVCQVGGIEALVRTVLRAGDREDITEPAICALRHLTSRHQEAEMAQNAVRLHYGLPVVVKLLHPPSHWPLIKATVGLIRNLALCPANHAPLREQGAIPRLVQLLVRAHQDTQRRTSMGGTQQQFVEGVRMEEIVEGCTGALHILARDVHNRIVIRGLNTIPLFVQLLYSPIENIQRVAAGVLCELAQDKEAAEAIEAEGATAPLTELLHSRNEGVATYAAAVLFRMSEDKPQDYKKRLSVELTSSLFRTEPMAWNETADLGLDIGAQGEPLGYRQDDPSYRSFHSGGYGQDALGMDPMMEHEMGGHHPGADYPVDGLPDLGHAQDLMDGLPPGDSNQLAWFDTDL

Binder | NanoBRET Abs IC50
mPEG2-[αAllylPro]D[tBuAla][B5(5)]DDAAFN[PyrS2″][Phe(2-Cl)][Bta][dT]-NH2 (staple 1-4, 4-11) [I-1253] | > 20 µM
{Propanoyl(3-OMe)}-[αAllylPro]D[tBuAla][B5(33)]DDAAFT[S8][Phe(2-Cl)][Bta]Q-NH2 (staple 1-4, 4-11) [I-1261] | 19.8 µM
{Propanoyl(3-OMe)}-[αAllylPro]D[tBuAla][B5(33)]DDAAFN[PyrS2][Phe(2-Cl)][Bta][dT]-NH2 (staple 1-4, 4-11) [I-1259] | 18.1 µM
XDXXDDAAFTXFXQ (not fully specified; MeSO2-PL3-Asp-Npg-B5-Asp-Asp-Ala-Ala-Phe-Thr-S8-2C1F-BztA-Gln-NH2; stapled by olefin metathesis (PL3-B5 and B5-S8)) [I-1260] | 24 µM
mPEG2-[αAllylPro]D[tBuAla][B5(33)]DDAAFT[S8][Phe(2-Cl)][Bta]Q-NH2 (staple 1-4, 4-11) [I-1255] | > 20 µM
Ac-[αAllylPro]D[tBuAla][B5(4)]DDAAFL[PyrS2″][Phe(2-Cl)][Bta][Thr(ol)] (staple 1-4, 4-11) [I-1249] | 25.2 µM
Ac-[αAllylPro]D[tBuAla][B5(4)]DDAAFL[PyrS2″][Phe(2-Cl)][Bta]Q-NHEt (staple 1-4, 4-11) [I-1248] | 29.7 µM
Ac-[αAllylPro]D[tBuAla][B5(5)]DTAA[1Nal]T[PyrS2″]F[Bta]S-NH2 (staple 1-4, 4-11) [I-1266] | > 20 µM
Ac-[αAllylPro]D[tBuAla][B5(4)]DDAAFT[PyrS2″][Phe(2-Cl)][Bta][Leu(ol)] (staple 1-4, 4-11) [I-1247] | > 20 µM
Ac-[αAllylPro]D[tBuAla][B5(4)]DDAAFL[PyrS2″][Phe(2-Cl)][Bta]-Alaol (staple 1-4, 4-11) [I-1250] | > 20 µM
Ac-[αAllylPro]D[tBuAla][B5(33)]DTAAFT[PyrS2]F[Bta]S-NH2 (staple 1-4, 4-11) [I-1263] | 20 µM
Ac-[αAllylPro]D[tBuAla][B5(33)]DTLAFT[PyrS2]F[Bta]S-NH2 (staple 1-4, 4-11) [I-1264] | > 20 µM
Ms-[αAllylPro]D[tBuAla][B5(33)]DDAAFN[PyrS2][Phe(2-Cl)][Bta][dT]-NH2 (staple 1-4, 4-11; not fully specified; printed as MeSO2-PL3-Asp-Npg-B5-Asp-Asp-Ala-Ala-Phe-Asn-PyrS2-2C1F-BztA-dThr-NH2) [I-1258] | > 20 µM
Ac-[αAllylPro]D[tBuAla][B5(33)]DTALFT[PyrS2]F[Bta]S-NH2 (staple 1-4, 4-11) [I-1265] | 22.7 µM
Ac-[αAllylPro]D[tBuAla][B5(5)]DTAA[2Nal]T[PyrS2″]F[Bta]S-NH2 (staple 1-4, 4-11) [I-1267] | 36.9 µM
